{"source": "paper PMC5821440", "key": {"[1]": {"target": "Pro21717-CD, catalytic domain of the cold-active subtilisin-like serine protease Pro21717 from Pseudoalteromonas arctica PAMC 21717 (Pseudoalteromonas arctica PAMC 21717)", "test": "not stated; purified Pro21717-CD in solution, three days after refolding; method in S2 Fig, not shown"}, "[2]": {"target": "Pro21717-CD, catalytic domain of the cold-active subtilisin-like serine protease Pro21717 from Pseudoalteromonas arctica PAMC 21717 (Pseudoalteromonas arctica PAMC 21717)"}}, "note": "Numbered stars: 1 amine (or outer) side, 2 acyl side, 3 side chain; on linkers, the order of the positions; unused ones are H or OH. * marks the point of attachment. pNA = O=[N+]([O-])c1ccc(N*)cc1; Suc = O=C(CCC(=O)[*:2])[*:1]", "data": [{"molecule": "Pro21717-CD, catalytic domain of the cold-active subtilisin-like serine protease Pro21717 from Pseudoalteromonas arctica PAMC 21717 (domain or fragment)", "values": [{"measurement": "stoichiometry N", "setting": "[1]", "result": 2}]}, {"molecule": "Suc-AAPF-pNA", "note": "[N-succinyl-Ala-Ala-Pro-Phe-p-nitroanilide]", "values": [{"measurement": "relative proteolytic activity (%) on N-succinyl-AAPF-p-nitroanilide, 0.83 mM, 30°C, 5 min (the best peptide substrate, set to 100)", "setting": "[2]", "result": 100, "unit": "%"}]}]}
